Laboratory results taken from paper PMC11784142, “About bacteriophage tail terminator and tail completion proteins: structure of the proximal extremity of siphophage T5 tail” (Journal of Virology, 2024).

B1: Baseplate Hub Protein pb3 of bacteriophage T5 (natural protein, UniProt Q6QGE9 1-949, looked up)
chain: MKKILDSAKNYLNTHDKLKTACLIALELPSSSGSAATYIYLTDYFRDVTYNGILYRSGKVKSISSHKQNRQLSIGSLSFTITGTAEDEVLKLVQNGVSFLDRGITIHQAIINEEGNILPVDPDTDGPLLFFRGRITGGGIKDNVNTSGIGTSVITWNCSNQFYDFDRVNGRYTDDASHRGLEVVNGTLQPSNGAKRPEYQEDYGFFHSNKSTTILAKYQVKEERYKLQSKKKLFGLSRSYSLKKYYETVTKEVDLDFNLAAKFIPVVYGVQKIPGIPIFADTELNNPNIVYVVYAFAEGEIDGFLDFYIGDSPMICFDETDSDTRTCFGRKKIVGDTMHRLAAGTSTSQPSVHGQEYKYNDGNGDIRIWTFHGKPDQTAAQVLVDIAKKKGFYLQNQNGNGPEYWDSRYKLLDTAYAIVRFTINENRTEIPEISAEVQGKKVKVYNSDGTIKADKTSLNGIWQLMDYLTSDRYGADITLDQFPLQKVISEAKILDIIDESYQTSWQPYWRYVGWNDPLSENRQIVQLNTILDTSESVFKNVQGILESFGGAINNLSGEYRITVEKYSTNPLRINFLDTYGDLDLSDTTGRNKFNSVQASLVDPALSWKTNSITFYNSKFKEQDKGLDKKLQLSFANITNYYTARSYADRELKKSRYSRTLSFSVPYKFIGIEPNDPIAFTYERYGWKDKFFLVDEVENTRDGKINLVLQEYGEDVFINSEQVDNSGNDIPDISNNVLPPRDFKYTPTPGGVVGAIGKNGELSWLPSLTNNVVYYSIAHSGHVNPYIVQQLENNPNERMIQEIIGEPAGLAIFELRAVDINGRRSSPVTLSVDLNSAKNLSVVSNFRVVNTASGDVTEFVGPDVKLAWDKIPEEEIIPEIYYTLEIYDSQDRMLRSVRIEDVYTYDYLLTYNKADFALLNSGALGINRKLRFRIRAEGENGEQSVGWATI
notes: Baseplate Hub Protein pb3 (BHP) of bacteriophage T5; Native protein of the purified tail tip; trimer; also called BHPpb3; source: E. coli strain F infected with the mutant phage T5D20am30d; part of purified T5 tails

Legend:
[1] = target: B1; test: cryo-EM structure; tail tip of native purified T5 tails; particles recentred on the lower part of BHPpb3, symmetry relaxation, no symmetry imposed; 6–10 Å in the area of the additional density; AlphaFold2 model of TCP_(p143) flexibly fitted; settings: partners not purified
[2] = target: the molecule itself; test: cryo-EM structure; proximal extremity of native T5 tails (assembled in infected E. coli, purified as whole tails); single particle analysis, C3 symmetry imposed, 3.88 Å
[3] = target: the molecule itself; test: cryo-EM structure; tail tip of native purified T5 tails; particles recentred on the lower part of BHPpb3, symmetry relaxation, no symmetry imposed; 6–10 Å in the area of the additional density; AlphaFold2 model of TCP_(p143) flexibly fitted

Binder	stoichiometry N [2]	stoichiometry N [3]	other results
tail completion protein p143 of bacteriophage T5 (natural protein, UniProt Q6QGE0 1-255, looked up, tail completion protein p143 (TCP) of bacteriophage T5; 27.8 kDa, 255 residues; Native protein of the purified tail; the density was assigned to it by the fit of an AlphaFold2 model and because it was the only tail protein not yet localised; also called TCP_(p143); Neck1; source: E. coli strain F infected with the mutant phage T5D20am30d; part of purified T5 tails) MSLSDLARQIIKEQLDTASRSENNKNTVVYSVETGLKDPTRDGTVAQVSFKFSKPVSQDLLNIRTASILKAVSSSLDLSGDLGALENLIQATAGKKSSVGKKRSTGRVQVNFGDPSDVEDGYSGAVTGASGRFVSNSNMKIILEIVAKEYLIKDMKKAGAPLKFRTGRFANSLKIKDVMLRDSETSKGSPELNVTYNYMTRPYSVFNPAVSTYRRLSLRPYPGARNPQKLIGEAIAKAARDLIHSRYKIKVNQGT			stoichiometry N [1]: 1 copy per phage
tail terminator protein p142 of bacteriophage T5 (natural protein, UniProt Q6QGE1 1-161, looked up, tail terminator protein p142 (TrP) of bacteriophage T5; a 161-residues protein; model compared over 156 residues; Native phage-encoded protein as it stands in the purified tail; hexameric ring that caps the tail tube; also called TrP_(p142); Trp_(p142); source: E. coli strain F infected with the mutant phage T5D20am30d; part of purified T5 tails (PEG precipitation, glycerol step gradient, ion …)) MDHRTSIAQAMVDRISKQMDGSQPDEYFNNLYGNVSRQTYKFEEIREFPYVAVHIGTETGQYLPSGQQWMFLELPILVYDKEKTDIQEQLEKLVADIKTVIDTGGNLEYTVSKPNGSTFPCEATDMIITSVSTDEGLLAPYGLAEINVTVRYQPPRRSLRR	6		
tail tube protein pb6 of bacteriophage T5 (natural protein, UniProt Q6QGE2 1-464, looked up, tail tube protein pb6 (TTP) of bacteriophage T5; structures compared over the 464 residues; Native phage-encoded protein as it stands in the purified tail; trimeric ring (last ring of the tube, under the p142 ring); also called TTPpb6; source: E. coli strain F infected with the mutant phage T5D20am30d; part of purified T5 tails (PEG precipitation, glycerol step gradient, ion exchange)) MSLQLLRNTRIFVSTVKTGHNKTNTQEILVQDDISWGQDSNSTDITVNEAGPRPTRGSKRFNDSLNAAEWSFSTYILPYKDKNTSKQIVPDYMLWHALSSGRAINLEGTTGAHNNATNFMVNFKDNSYHELAMLHIYILTDKTWSYIDSCQINQAEVNVDIEDIGRVTWSGNGNQLIPLDEQPFDPDQIGIDDETYMTIQGSYIKNKLTILKIKDMDTNKSYDIPITGGTFTINNNITYLTPNVMSRVTIPIGSFTGAFELTGSLTAYLNDKSLGSMELYKDLIKTLKVVNRFEIALVLGGEYDDERPAAILVAKQAHVNIPTIETDDVLGTSVEFKAIPSDLDAGDEGYLGFSSKYTRTTINNLIVNGDGATDAVTAITVKSAGNVTTLNRSATLQMSVEVTPSSARNKEVTWAITAGDAATINATGLLRADASKTGAVTVEATAKDGSGVKGTKVITVTAGG	3		
distal tail protein pb9 of bacteriophage T5 (natural protein, UniProt Q6QGE8 1-204, looked up, distal tail protein pb9 (DTP) of bacteriophage T5; Native protein of the purified tail tip; hexamer; also called DTPpb9; source: E. coli strain F infected with the mutant phage T5D20am30d; part of purified T5 tails) MRLPDPYTNPEYPGLGFESVNLVDNDPMIRDELPNGKVKEVKISAQYWGINISYPELFPDEYAFLDSRLLEYKRTGDYLDVLLPQYEAFRVRGDTKSVTIPAGQKGSQIILNTNGTLTGQPKAGDLFKLSTHPKVYKITNFSSSGNVWNISLYPDLFITTTGSEKPVFNGILFRTKLMNGDSFGSTLNNNGTYSGISLSLRESL		6	
B1		3	
